This note sets out measurements from EP4782541A1 (Nanjing Probio Biotech Co., Ltd., dated 2026).

Experiment [1] concerns the target human ROR1 (on CHO-K1/ROR1 cells and ROR1 tumour cell lines) (human) (UniProt Q01973). Put plainly: flow cytometry on A375 cells (human ROR1 tumour cell line). On the technique in general: Flow cytometry measures light scatter and fluorescence of single cells or particles in a stream.
Experiment [2] has the same target. Put plainly: flow cytometry on PSN-1 cells (human ROR1 tumour cell line).
Experiment [3] has the same target. Put plainly: flow cytometry on MDA-MB-231 cells (human ROR1 tumour cell line).
Experiment [4] shares this target. Nature of the experiment: cell-based or functional assay.
Experiment [5] has the same target. Put plainly: flow cytometry on Jeko-1 cells (human ROR1 tumour cell line).
For experiment [6] the target is unchanged. Nature of the experiment: flow cytometry on PA-1 cells (human ROR1 tumour cell line).
Experiment [7] addresses T1, human CD3 (on Jurkat cells) (human, UniProt P07766 23-207; P09693 23-182; P04234 22-171).
T1 construct: whole, on cells
Nature of the experiment: flow cytometry on Jurkat cells expressing human CD3.

For experiment [8], the target named is human ROR1 (on CHO-K1/ROR1 cells and ROR1 tumour cell lines) (human) (UniProt Q01973). Put plainly: flow cytometry on A549 cells (human ROR1 tumour cell line).
The target is the same in experiment [9]. Nature of the experiment: flow cytometry on CHO-K1/ROR1 cells overexpressing human ROR1.
For experiment [10], the target named is T2, human ROR1 protein (human, UniProt Q01973 30-403, limits assumed).
T2 construct: Recombinant antigen of the SPR assay; also called ROR1 (SPR ligand)
Put plainly: SPR (Biacore 8K); human ROR1 amine-coupled at 2.50 ug/mL as ligand, antibody as analyte. For orientation: Surface plasmon resonance follows binding to a sensor surface in real time, without labels.

In experiment [11] the target is T3, human ROR1 (on CHO-K1/ROR1 cells and ROR1 tumour cell lines) (human, UniProt Q01973 30-937).
T3 construct: whole, on cells; also called receptor tyrosine kinase-like orphan receptor 1
Nature of the experiment: flow cytometry on A375 cells (human ROR1 tumour cell line).

For experiment [12], the target named is T2, human ROR1 protein. Nature of the experiment: SPR (Biacore 8K); human ROR1 amine-coupled at 0.50 ug/mL as ligand, antibody as analyte.
The target in experiment [13] is T2, human ROR1 protein. Nature of the experiment: SPR (Biacore 8K); human ROR1 amine-coupled at 0.10 ug/mL as ligand, antibody as analyte.
Experiment [14] has as its target T2, human ROR1 protein. Put plainly: SPR (Biacore 8K); human ROR1 amine-coupled at 62.50 ug/mL as ligand, antibody as analyte.
Experiment [15] concerns the target T3, human ROR1 (on CHO-K1/ROR1 cells and …). Put plainly: flow cytometry on CHO-K1/ROR1 cells overexpressing human ROR1.
Experiment [16] shares this target. Nature of the experiment: flow cytometry on PSN-1 cells (human ROR1 tumour cell line).
Experiment [17] concerns the target T2, human ROR1 protein. Nature of the experiment: SPR (Biacore 8K); human ROR1 amine-coupled at 12.50 ug/mL as ligand, antibody as analyte.
Experiment [18] concerns the target T3, human ROR1 (on CHO-K1/ROR1 cells and …). Nature of the experiment: flow cytometry on MDA-MB-231 cells (human ROR1 tumour cell line).
Experiment [19] shares this target. Nature of the experiment: flow cytometry on A549 cells (human ROR1 tumour cell line).
Experiment [20] concerns the target T2, human ROR1 protein. Nature of the experiment: SPR (Biacore 8K); human ROR1 amine-coupled at 0.05 ug/mL as ligand, antibody as analyte.
Experiment [21] deals with T3, human ROR1 (on CHO-K1/ROR1 cells and …). Put plainly: cell-based or functional assay.
Experiment [22] shares this target. Put plainly: flow cytometry on PA-1 cells (human ROR1 tumour cell line).
The target is the same in experiment [23]. Nature of the experiment: flow cytometry on Jeko-1 cells (human ROR1 tumour cell line).

T2 sequence (Q01973 30-403 limits assumed): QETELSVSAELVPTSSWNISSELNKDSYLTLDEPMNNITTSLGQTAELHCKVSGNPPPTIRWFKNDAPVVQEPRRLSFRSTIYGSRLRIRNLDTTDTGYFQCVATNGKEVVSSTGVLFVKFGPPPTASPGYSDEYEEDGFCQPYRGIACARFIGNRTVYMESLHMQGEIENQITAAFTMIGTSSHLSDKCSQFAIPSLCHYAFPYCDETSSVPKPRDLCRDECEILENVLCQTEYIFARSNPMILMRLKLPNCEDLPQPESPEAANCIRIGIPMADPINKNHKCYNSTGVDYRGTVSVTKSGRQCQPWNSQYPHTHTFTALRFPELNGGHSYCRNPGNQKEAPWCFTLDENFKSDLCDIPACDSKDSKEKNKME
T1 sequence (P07766 23-207, chain 1 of 3): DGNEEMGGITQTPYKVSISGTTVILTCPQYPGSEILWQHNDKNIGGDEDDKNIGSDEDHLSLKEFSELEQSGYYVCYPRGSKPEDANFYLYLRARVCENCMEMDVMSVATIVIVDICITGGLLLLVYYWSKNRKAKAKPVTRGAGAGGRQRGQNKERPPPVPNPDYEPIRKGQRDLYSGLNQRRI
T1 sequence (P09693 23-182, chain 2 of 3): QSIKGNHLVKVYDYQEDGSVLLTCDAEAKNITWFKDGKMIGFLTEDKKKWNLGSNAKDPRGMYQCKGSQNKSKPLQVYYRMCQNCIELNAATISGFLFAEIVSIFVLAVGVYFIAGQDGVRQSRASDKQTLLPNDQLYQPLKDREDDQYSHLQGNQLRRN
T1 sequence (P04234 22-171, chain 3 of 3): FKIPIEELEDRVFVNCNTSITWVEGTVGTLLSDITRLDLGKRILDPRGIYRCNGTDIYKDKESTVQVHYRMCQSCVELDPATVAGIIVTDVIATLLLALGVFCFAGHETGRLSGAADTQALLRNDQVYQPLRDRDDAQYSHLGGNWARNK
Sequence of human ROR1 (on CHO-K1/ROR1 cells and ROR1 tumour cell lines) (human) (Q01973 30-937): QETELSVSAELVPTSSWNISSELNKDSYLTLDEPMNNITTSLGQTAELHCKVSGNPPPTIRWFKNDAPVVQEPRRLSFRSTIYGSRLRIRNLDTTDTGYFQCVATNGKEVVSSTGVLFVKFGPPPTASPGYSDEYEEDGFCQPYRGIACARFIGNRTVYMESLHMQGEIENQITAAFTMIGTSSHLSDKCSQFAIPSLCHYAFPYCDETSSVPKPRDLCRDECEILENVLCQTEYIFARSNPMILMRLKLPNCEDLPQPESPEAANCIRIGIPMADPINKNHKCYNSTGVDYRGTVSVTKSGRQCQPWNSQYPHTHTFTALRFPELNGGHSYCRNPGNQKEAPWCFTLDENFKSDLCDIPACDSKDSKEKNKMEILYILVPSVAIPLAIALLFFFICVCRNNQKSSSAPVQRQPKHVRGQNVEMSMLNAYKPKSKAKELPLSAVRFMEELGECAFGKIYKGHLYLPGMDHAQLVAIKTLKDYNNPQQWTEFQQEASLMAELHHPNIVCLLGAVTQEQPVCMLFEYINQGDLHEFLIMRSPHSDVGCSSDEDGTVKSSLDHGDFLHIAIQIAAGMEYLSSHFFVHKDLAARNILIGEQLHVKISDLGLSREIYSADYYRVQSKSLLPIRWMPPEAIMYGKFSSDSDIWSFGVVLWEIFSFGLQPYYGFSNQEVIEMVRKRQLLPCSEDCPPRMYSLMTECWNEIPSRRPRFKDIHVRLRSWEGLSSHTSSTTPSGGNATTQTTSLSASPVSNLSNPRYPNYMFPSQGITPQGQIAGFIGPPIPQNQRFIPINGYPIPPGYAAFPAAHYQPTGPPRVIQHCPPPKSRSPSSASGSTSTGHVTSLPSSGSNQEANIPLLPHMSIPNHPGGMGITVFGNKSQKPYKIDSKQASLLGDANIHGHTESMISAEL
T3 sequence (Q01973 30-937): as above

As usually defined, the EC50 is the concentration that produces a half-maximal response. A high value points to a less potent agent. Regarding EMB-07 (bispecific antibody), the EC50 in experiment [1] was 2.5 nM; in experiment [2], 6.09 nM; in [3], 3.84 nM; in experiment [5] it was 7.15 nM; in [6] it was 5.06 nM; in experiment [7], 4.45 nM. The EC50 in experiment [8] worked out at 4.01 nM; in [9], 2.39 nM. Also, the EC50 of T cell activation based on reporter gene (luciferase), target cells A375 in [4] came out at 0.428 nM. Further, in [4], the EC50 of T cell activation based on reporter gene (luciferase), target cells Jeko-1 is 0.155 nM. Besides, the EC50 of T cell activation based on reporter gene (luciferase), target cells MDA-MB-231 in [4] came out at 0.0644 nM.

B1: BsAb-12 (bispecific antibody, human IgG1, lambda)
chain: EVQLVESGGGLVQPGGSLRLSCAASGRSFSSFQMGWFRQAPGKEREFVAASGWSGGPTYYWDSVIGRFTISTDNSKNTLYLQMNSLRAEDTAVYYCYEDRVLSGRPVRYWGQGTLVTVSSDKTHTCPPCPAPESTRGPSVFLFPPKPKDTLMISRTPEVTCVVVDVSHEDPEVKFNWYVDGVEVHNAKTKPREEQYNSTYRVVSVLTVLHQDWLNGKEYKCKVSNKALPAPIEKTISKAKGQPREPQVCTLPPSRDELTKNQVSLSCAVKGFYPSDIAVEWESNGQPENNYKTTPPVLDSDGSFFLVSKLTVDKSRWQQGNVFSCSVMHEALHNHYTQKSLSLSPGK
heavy: EVQLVESGGGLVQPGGSLRLSCAASGRSFSSFQMGWFRQAPGKEREFVAASGWSGGPTYYWDSVIGRFTISTDNSKNTLYLQMNSLRAEDTAVYYCYEDRVLSGRPVRYWGQGTLVTVSSGGGGSGGGGSGGGGSEVQLVESGGGLVQPGRSLRLSCAASGFTFNTYAMNWVRQAPGKGLEWVARIRSKYNNYATYYADSVKDRFTISRDDSKSIAYLQMNSLKTEDTAVYYCVRHGNFGNSYVSWFAYWGQGTLVTVSSASTKGPSVFPLAPSSKSTSGGTAALGCLVKDYFPEPVTVSWNSGALTSGVHTFPAVLQSSGLYSLSSVVTVPSSSLGTQTYICNVNHKPSNTKVDKKVEPKSCDKTHTCPPCPAPESTRGPSVFLFPPKPKDTLMISRTPEVTCVVVDVSHEDPEVKFNWYVDGVEVHNAKTKPREEQYNSTYRVVSVLTVLHQDWLNGKEYKCKVSNKALPAPIEKTISKAKGQPREPQVYTLPPCRDELTKNQVSLWCLVKGFYPSDIAVEWESNGQPENNYKTTPPVLDSDGSFFLYSKLTVDKSRWQQGNVFSCSVMHEALHNHYTQKSLSLSPGK
light: QTVVTQEPSLTVSPGGTVTLTCRSSTGAVTTSNYANWVQQKPGQAPRGLIGGTNKRAPGVPARFSGSLLGGKAALTLSGVQPEDEAEYFCALWYSNLWVFGGGTKLTVLGQPKAAPSVTLFPPSSEELQANKATLVCLISDFYPGAVTVAWKADSSPVKAGVETTTPSKQSNNKYAASSYLSLTPEQWKSHRSYSCQVTHEGSTVEKTVAPTECS
notes: also called BsAb-12 CD3×ROR1
For orientation: Kd means a measure of binding affinity in units of concentration. Read a low Kd as higher affinity. What is called koff is a measure of how fast the partners let go of each other. In general, kon refers to a measure of how fast the partners come together. Read a high kon as fast association. Consider B1, for which the Kd came out at 0.106 nM with human ROR1 protein [10]; 0.354 nM in the experiment with human ROR1 protein [12]; 0.359 nM with human ROR1 protein [13]; 0.0267 nM in the experiment with human ROR1 protein [14]; 0.0349 nM with human ROR1 protein [17]; 0.649 nM in the experiment with human ROR1 protein [20]. The koff was 8.37e-05 s⁻¹ in the experiment with human ROR1 protein [10]; 0.000207 s⁻¹ with human ROR1 protein [12]; 0.000169 s⁻¹ with human ROR1 protein [13]; 2.83e-05 s⁻¹ in the experiment with human ROR1 protein [14]; 5.83e-05 s⁻¹ in the experiment with human ROR1 protein [17]; 0.000421 s⁻¹ with human ROR1 protein [20]. The kon worked out at 788000 M⁻¹ s⁻¹ in the experiment with human ROR1 protein [10]; 585000 M⁻¹ s⁻¹ with human ROR1 protein [12]; 471000 M⁻¹ s⁻¹ in the experiment with human ROR1 protein [13]; 1.06e+06 M⁻¹ s⁻¹ in the experiment with human ROR1 protein [14]; 1.67e+06 M⁻¹ s⁻¹ with human ROR1 protein [17]; 649000 M⁻¹ s⁻¹ with human ROR1 protein [20]. Further, the EC50 in experiment [11] turned out to be 0.155 nM; in experiment [15] it was 0.223 nM; in [16], 1.17 nM; in [18], 0.308 nM; in experiment [19] it was 0.415 nM; in [7], 1.39 nM. Further, the figures for the EC50 in experiment [22] and in [23] were 0.547 nM and 0.133 nM, respectively. In [21], the “EC50 of T cell activation based on reporter gene (luciferase), target cells A375” value came to 0.0117 nM. The “EC50 of T cell activation based on reporter gene (luciferase), target cells Jeko-1” value in experiment [21] came out at 0.00748 nM. Also, the “EC50 of T cell activation based on reporter gene (luciferase), target cells MDA-MB-231” value in experiment [21] was found to be 0.00258 nM.

B2: BsAb-9 (bispecific antibody, human IgG1, lambda)
chain: EVQLVESGGGLVQPGGSLRLSCAASGFISRFYAMGWYRQAPGKQRELVARISSMGWTYYADSVKGRFTISIDNSKNTLYLQMNSLRAEDTAVYYCNARNLWGQGTLVTVSSDKTHTCPPCPAPESTRGPSVFLFPPKPKDTLMISRTPEVTCVVVDVSHEDPEVKFNWYVDGVEVHNAKTKPREEQYNSTYRVVSVLTVLHQDWLNGKEYKCKVSNKALPAPIEKTISKAKGQPREPQVCTLPPSRDELTKNQVSLSCAVKGFYPSDIAVEWESNGQPENNYKTTPPVLDSDGSFFLVSKLTVDKSRWQQGNVFSCSVMHEALHNHYTQKSLSLSPGK
heavy: EVQLVESGGGLVQPGGSLRLSCAASGFISRFYAMGWYRQAPGKQRELVARISSMGWTYYADSVKGRFTISIDNSKNTLYLQMNSLRAEDTAVYYCNARNLWGQGTLVTVSSGGGGSGGGGSGGGGSEVQLVESGGGLVQPGRSLRLSCAASGFTFNTYAMNWVRQAPGKGLEWVARIRSKYNNYATYYADSVKDRFTISRDDSKSIAYLQMNSLKTEDTAVYYCVRHGNFGNSYVSWFAYWGQGTLVTVSSASTKGPSVFPLAPSSKSTSGGTAALGCLVKDYFPEPVTVSWNSGALTSGVHTFPAVLQSSGLYSLSSVVTVPSSSLGTQTYICNVNHKPSNTKVDKKVEPKSCDKTHTCPPCPAPESTRGPSVFLFPPKPKDTLMISRTPEVTCVVVDVSHEDPEVKFNWYVDGVEVHNAKTKPREEQYNSTYRVVSVLTVLHQDWLNGKEYKCKVSNKALPAPIEKTISKAKGQPREPQVYTLPPCRDELTKNQVSLWCLVKGFYPSDIAVEWESNGQPENNYKTTPPVLDSDGSFFLYSKLTVDKSRWQQGNVFSCSVMHEALHNHYTQKSLSLSPGK
light: QTVVTQEPSLTVSPGGTVTLTCRSSTGAVTTSNYANWVQQKPGQAPRGLIGGTNKRAPGVPARFSGSLLGGKAALTLSGVQPEDEAEYFCALWYSNLWVFGGGTKLTVLGQPKAAPSVTLFPPSSEELQANKATLVCLISDFYPGAVTVAWKADSSPVKAGVETTTPSKQSNNKYAASSYLSLTPEQWKSHRSYSCQVTHEGSTVEKTVAPTECS
notes: also called BsAb-09
B2: the Kd with human ROR1 protein [10] amounted to 0.0129 nM; with human ROR1 protein [12], 0.0216 nM; with human ROR1 protein [13], 0.0497 nM; with human ROR1 protein [14], 0.00682 nM; with human ROR1 protein [17] it was 0.00664 nM; with human ROR1 protein [20], 0.0811 nM. The koff in the experiment with human ROR1 protein [10] was 0.000521 s⁻¹; with human ROR1 protein [12] it was 0.00083 s⁻¹; with human ROR1 protein [13], 0.00113 s⁻¹; with human ROR1 protein [14] it was 0.000187 s⁻¹; in the experiment with human ROR1 protein [17] it was 0.000242 s⁻¹; in the experiment with human ROR1 protein [20], 0.00143 s⁻¹. The kon with human ROR1 protein [10] came out at 4.05e+07 M⁻¹ s⁻¹; with human ROR1 protein [12], 3.85e+07 M⁻¹ s⁻¹; with human ROR1 protein [13], 2.28e+07 M⁻¹ s⁻¹; with human ROR1 protein [14], 2.73e+07 M⁻¹ s⁻¹; in the experiment with human ROR1 protein [17], 3.65e+07 M⁻¹ s⁻¹; with human ROR1 protein [20] it was 1.76e+07 M⁻¹ s⁻¹. The EC50 in [15] amounted to 0.0864 nM; in [7], 1.38 nM.
